From article PMC5430726 come the findings set out here.

For test [1], the target named is Grb2 SH3C-SLP65 peptide binary complex (formed before Vav SH3N was added) (mouse) (UniProt Q60631). Put plainly: ITC; Vav SH3N titrated into the preformed Grb2 SH3C-SLP65 peptide binary complex (gives Complex 2, trimeric); 20 mM sodium phosphate, 100 mM NaCl, pH 6.0, 25 °C; Kd called approximate. For orientation: In ITC the heat of successive injections is recorded.

Test [2] concerns the target Grb2 C-terminal SH3 domain (SH3C), residues 155-217 (mouse) (UniProt Q60631). Put plainly: ITC; free Grb2 SH3C in the cell (20 uM for the peptide, 40 uM for Vav) titrated with 280 uM SLP65 peptide or 600 uM Vav SH3N; 20 mM sodium phosphate, 100 mM NaCl, pH 6.0, 25 °C; one-site binding model.

Usually Kd stands for the constant that tells how readily two partners part at equilibrium. Low readings indicate a tighter complex, high ones a looser complex. A word on the stoichiometry N: it is the number of molecules, sites or subunits per partner or assembly.

Sequence of Grb2 SH3C-SLP65 peptide binary complex (formed before Vav SH3N was added) (mouse) (Q60631 155-217, one chain of several): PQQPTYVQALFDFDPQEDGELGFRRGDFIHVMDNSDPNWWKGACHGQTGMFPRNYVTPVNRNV
Sequence of Grb2 C-terminal SH3 domain (SH3C), residues 155-217 (mouse) (Q60631 155-217): as the sequence (Q60631 155-217, one chain of several) above

“Vav N-terminal SH3 domain (SH3N), residues 583-660 (from UniProt Q8VDU4 583-660) (domain or fragment)”: in test [1], the Kd amounted to 11.5 µM, the dH is -0.54 kcal/mol and the stoichiometry N amounted to 1.1. For the same substance, in test [2], the dissociation constant (Kd) came out at 4.5 µM, the dH was -3.15 kcal/mol and the stoichiometry N came to 0.91.
